Source: article PMC4285326, “Structure and interactions of the Bacillus subtilis sporulation inhibitor of DNA replication, SirA, with domain I of DnaA” (Molecular Microbiology, 2014)
Blank lines part the entries; values can stand above or below the binder they belong to.

B1: SirA (sporulation inhibitor of DNA replication), Bacillus subtilis (natural protein, B. subtilis, UniProt P45707 1-148, looked up)
chain: MERHYYTYLIKEEFANHYFGRESVMFELFQDYHWTSLEKQQYEMTEKQIQYITQPIPILHMHQRLKMNLNKTDYRQLDYIYRIALPKAKGHATFMMKEHMIEIVASGDYEAETIFFEVLRKVSPCFLAMDFNSKRYGWLNPVKERNFV
modifications: 2-mercaptoethanol linked through a disulphide bond to Cys125 (seen in the crystal and by mass spectrometry)
notes: SirA, B. subtilis, amplified from genomic DNA, untagged; model has residues 2-141, Met1 and residues 142-148 disordered; Soluble only when coexpressed with DnaA^DI; A selenomethionine-substituted form was also crystallised for phasing; also called wild type SirA; native SirA; source: E. coli BL21 (DE3), coexpressed with His-DnaA^DI from pET-YSBLIC3C-DnaA^DISirA
B5: DnaA domain I (DnaA^DI), Bacillus subtilis, His-tag removed (domain or fragment, B. subtilis)
chain: GPAMENILDLWNQALAQIEKKLSKPSFETWMKSTKAHSLQGDTLTITAPNEFARDWLESRYLHLIADTIYELTGEELSIKFVIPQ
notes: DnaA, B. subtilis, domain I (N-terminal domain); residues 1-81 defined in the crystal, C-terminal Gln82 disordered; Calculated molecular mass 9.7 kDa; also called N-terminal domain of DnaA; not shown: His6, N-terminal, cleaved
B6: His-tagged DnaA domain I (His-DnaA^DI), Bacillus subtilis (domain or fragment, B. subtilis, UniProt P05648 1-82, looked up)
chain: MENILDLWNQALAQIEKKLSKPSFETWMKSTKAHSLQGDTLTITAPNEFARDWLESRYLHLIADTIYELTGEELSIKFVIPQ
notes: DnaA, B. subtilis, domain I (N-terminal domain); residues 1-81 defined in the crystal, C-terminal Gln82 disordered; 3C protease cleavable N-terminal His-tag, not cleaved in these experiments; also called His-tagged DnaA^DI; wild type DnaA^DI; source: E. coli BL21 (DE3), coexpressed with SirA from pET-YSBLIC3C-DnaA^DISirA; not shown: His6, N-terminal, kept

Experiments:
[1] = molecular target: B5; assay: SEC-MALS; Superdex 75 HR 10/30, 50 mM Tris pH 8.5, 200 mM KCl, 0.5 ml min^-1; DnaA^DI at 1.0, 2.5 and 5.0 mg ml^-1; SirA-DnaA^DI at 0.5, 1.0 and 2.5 mg ml^-1; settings: both partners purified
[2] = molecular target: T1, DnaA domain I (DnaA^DI), Bacillus subtilis, His-tag removed (Bacillus subtilis (strain 168), UniProt P05648); assay: SEC-MALLS (1:1 heterodimer), Ni-NTA co-purification/pull-down, crystal structure; SirA soluble only when co-expressed with DnaA^DI; complex purified as such, not mixed from separate proteins
T1 chain: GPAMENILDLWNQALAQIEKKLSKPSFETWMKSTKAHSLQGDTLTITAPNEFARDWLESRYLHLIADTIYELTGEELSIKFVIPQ

[3] = molecular target: B6; assay: pull-down; soluble lysate of E. coli coexpressing His-DnaA^DI and untagged SirA loaded onto a HisTrap FF crude Ni-affinity column in 50 mM Tris pH 8.5, 200 mM KCl, 20 mM imidazole, 10 mM BME; washed; eluted with 500 mM imidazole; eluates normalised to DnaA^DI, SDS-PAGE with Coomassie staining, bands quantified with ImageJ; settings: partners not purified
[4] = molecular target: B1; assay: crystal structure; native crystals, space group P2_1, two complexes per asymmetric unit; 100 mM HEPES pH 7.5, 200 mM NH4 acetate, 25% PEG 3350, 1% DMF; SAD phasing from SeMet crystals, then molecular replacement; settings: both partners purified
[5] = molecular target: B1; assay: pull-down; soluble lysate of E. coli coexpressing His-DnaA^DI and untagged SirA loaded onto a HisTrap FF crude Ni-affinity column in 50 mM Tris pH 8.5, 200 mM KCl, 20 mM imidazole, 10 mM BME; washed; eluted with 500 mM imidazole; eluates normalised to DnaA^DI, SDS-PAGE with Coomassie staining, bands quantified with ImageJ; settings: partners not purified

Binder: B1
stoichiometry N [1]: 1
binding result [2]: binds

Binder: B5
binding result [4]: binds

Binder: B6
binding result [5]: binds

Second part, the binder after the results:

fold lower recovery relative to wild type SirA [3]: 1.5 fold
B2: SirA Q48A, Bacillus subtilis (natural protein, B. subtilis, UniProt P45707 1-148, looked up)
chain: MERHYYTYLIKEEFANHYFGRESVMFELFQDYHWTSLEKQQYEMTEKAIQYITQPIPILHMHQRLKMNLNKTDYRQLDYIYRIALPKAKGHATFMMKEHMIEIVASGDYEAETIFFEVLRKVSPCFLAMDFNSKRYGWLNPVKERNFV
notes: SirA, B. subtilis, untagged, with Gln48Ala; also called Gln48Ala; source: E. coli BL21, coexpressed with His-DnaA^DI, in soluble lysate

fold lower recovery relative to wild type SirA [3]: 1.5 fold
B3: SirA F14A, Bacillus subtilis (natural protein, B. subtilis, UniProt P45707 1-148, looked up)
chain: MERHYYTYLIKEEAANHYFGRESVMFELFQDYHWTSLEKQQYEMTEKQIQYITQPIPILHMHQRLKMNLNKTDYRQLDYIYRIALPKAKGHATFMMKEHMIEIVASGDYEAETIFFEVLRKVSPCFLAMDFNSKRYGWLNPVKERNFV
notes: SirA, B. subtilis, untagged, with Phe14Ala; also called Phe14Ala; source: E. coli BL21, coexpressed with His-DnaA^DI, in soluble lysate

fold lower recovery relative to wild type SirA [3]: 2.5 fold
B4: SirA Y18A, Bacillus subtilis (natural protein, B. subtilis, UniProt P45707 1-148, looked up)
chain: MERHYYTYLIKEEFANHAFGRESVMFELFQDYHWTSLEKQQYEMTEKQIQYITQPIPILHMHQRLKMNLNKTDYRQLDYIYRIALPKAKGHATFMMKEHMIEIVASGDYEAETIFFEVLRKVSPCFLAMDFNSKRYGWLNPVKERNFV
notes: SirA, B. subtilis, untagged, with Tyr18Ala; also called Tyr18Ala; source: E. coli BL21, coexpressed with His-DnaA^DI, in soluble lysate
